According to patent publication US20110206658A1 (published 2011):

T1: cynomolgus CD79b (TAHO40) (cynomolgus monkey)
T1 chain: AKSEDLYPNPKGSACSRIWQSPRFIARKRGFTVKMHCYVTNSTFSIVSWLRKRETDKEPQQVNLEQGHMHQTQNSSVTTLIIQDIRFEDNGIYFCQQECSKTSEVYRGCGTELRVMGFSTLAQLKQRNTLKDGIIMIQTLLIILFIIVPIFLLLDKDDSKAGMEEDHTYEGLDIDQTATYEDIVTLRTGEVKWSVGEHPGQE

T2: human CD79b (TAHO5) (human, UniProt P40259 29-229)
T2 sequence: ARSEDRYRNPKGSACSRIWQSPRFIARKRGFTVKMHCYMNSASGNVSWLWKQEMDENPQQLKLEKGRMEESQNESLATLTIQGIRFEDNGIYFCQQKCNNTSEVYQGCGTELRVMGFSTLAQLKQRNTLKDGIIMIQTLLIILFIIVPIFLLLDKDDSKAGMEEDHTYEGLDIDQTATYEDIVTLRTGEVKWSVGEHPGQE

B1: anti-cyno CD79b (10D10)-SMCC-DM1 (antibody, V domains shown)
VH: EVQLQESGPGLVKPSQSLSLTCTVTGYSITSDYAWNWIRQFPGNKLEWMGNIWYSGSTTYNPSLKSRISITRDTSKNQFFLQLNSVTSEDTATYYCSRMDFWGQGTTLTVSS
VL: DIVLTQSPPSLAVSLGQRATISCRASESVDSYGKTFMHWHQQKPGQPPKLLIYRVSNLESGIPARFSGSGSRTDFTLTINPVEADDVATYYCQQSNEDPFTFGGGTKLEIKR
modifications: DM1 linked through SMCC to the epsilon-amino group of lysines; drug to antibody ratio typically 3 to 4
B2: anti-cyno CD79b (10D10)-MC-MMAF (antibody, V domains shown)
VH: B1 VH
VL: B1 VL
modifications: MMAF linked through the cysteine by the maleimidocaproyl (MC) linker; sites and load not stated

Experiments:
[1] = target: T1, cynomolgus CD79b (TAHO40); assay: cell-based or functional assay
[2] = target: T2, human CD79b (TAHO5); assay: cell-based or functional assay

Binder | IC50 of tumor cell killing (CellTiter-Glo), BJAB-cyno CD79b cells [1] | IC50 of tumor cell killing (CellTiter-Glo), non-transfected BJAB cells [2]
B1 | 0.33 nM | 10 nM
B2 | 0.07 nM | 694 nM
